Source: PMC8998655, “Effect of Betaine and Arginine on Interaction of αB-Crystallin with Glycogen Phosphorylase b” (International Journal of Molecular Sciences, 2022)

What was measured:
[1] = target: the molecule itself; experiment: AUC; sedimentation velocity at 48 °C, Phb 0.4 mg/mL alone (also with 500 mM betaine), 0.03 M Hepes pH 6.8, ionic strength 0.15 M, 48,000 rpm
[2] = target: the molecule itself; experiment: AUC + other: dynamic light scattering; sedimentation velocity at 48 °C, αB-Cr 0.2 mg/mL, 0.03 M Hepes pH 6.8, ionic strength 0.15 M, no additive; mass by the Svedberg equation with s from AUC and D from DLS; major peak 20.4 S
[3] = target: the molecule itself; experiment: AUC + other: dynamic light scattering; sedimentation velocity at 48 °C, αB-Cr 0.2 mg/mL, 0.03 M Hepes pH 6.8, ionic strength 0.15 M, with 300 mM betaine; mass by the Svedberg equation with s from AUC and D from DLS; major peak 16.5 S

Protein	stoichiometry N [1]	stoichiometry N [2]	stoichiometry N [3]
glycogen phosphorylase b (enzyme, rabbit, UniProt P00489 1-843, looked up, glycogen phosphorylase b (muscle form), rabbit skeletal muscle; In all experiments the protein was heated at 48 °C, so it was partly unfolded (unfolded monomer and partly unfolded dimer); also called Phb; source: purified from rabbit skeletal muscle) MSRPLSDQEKRKQISVRGLAGVENVTELKKNFNRHLHFTLVKDRNVATPRDYYFALAHTVRDHLVGRWIRTQQHYYEKDPKRIYYLSLEFYMGRTLQNTMVNLALENACDEATYQLGLDMEELEEIEEDAGLGNGGLGRLAACFLDSMATLGLAAYGYGIRYEFGIFNQKICGGWQMEEADDWLRYGNPWEKARPEFTLPVHFYGRVEHTSQGAKWVDTQVVLAMPYDTPVPGYRNNVVNTMRLWSAKAPNDFNLKDFNVGGYIQAVLDRNLAENISRVLYPNDNFFEGKELRLKQEYFVVAATLQDIIRRFKSSKFGCRDPVRTNFDAFPDKVAIQLNDTHPSLAIPELMRVLVDLERLDWDKAWEVTVKTCAYTNHTVLPEALERWPVHLLETLLPRHLQIIYEINQRFLNRVAAAFPGDVDRLRRMSLVEEGAVKRINMAHLCIAGSHAVNGVARIHSEILKKTIFKDFYELEPHKFQNKTNGITPRRWLVLCNPGLAEIIAERIGEEYISDLDQLRKLLSYVDDEAFIRDVAKVKQENKLKFAAYLEREYKVHINPNSLFDVQVKRIHEYKRQLLNCLHVITLYNRIKKEPNKFVVPRTVMIGGKAAPGYHMAKMIIKLITAIGDVVNHDPVVGDRLRVIFLENYRVSLAEKVIPAADLSEQISTAGTEASGTGNMKFMLNGALTIGTMDGANVEMAEEAGEENFFIFGMRVEDVDRLDQRGYNAQEYYDRIPELRQIIEQLSSGFFSPKQPDLFKDIVNMLMHHDRFKVFADYEEYVKCQERVSALYKNPREWTRMVIRNIATSGKFSSDRTIAQYAREIWGVEPSRQRLPAPDEKIP	2		
αB-crystallin (natural protein, human, UniProt P02511 1-175, looked up, αB-crystallin (HspB5), human; Polydisperse oligomer (about 40-mer at 48 °C without additives, about 24-mer with 300 mM betaine); also called HspB5; source: E. coli (pET23 vector), purified (salting out with ammonium sulfate, gel filtration)) MDIAIHHPWIRRPFFPFHSPSRLFDQFFGEHLLESDLFPTSTSLSPFYLRPPSFLRAPSWFDTGLSEMRLEKDRFSVNLDVKHFSPEELKVKVLGDVIEVHGKHEERQDEHGFISREFHRKYRIPADVDPLTITSSLSSDGVLTVNGPRKQVSGPERTIPITREEKPAVTAAPKK		40	~24
